B1: PTP domain of PTPN21 (residues 873–1174) (domain or fragment, human, UniProt Q16825 873-1174, looked up)
chain: EVATRATNDERCKILEQRLEQGMVFTEYERILKKRLVDGECSTARLPENAERNRFQDVLPYDDVRVELVPTKENNTGYINASHIKVSVSGIEWDYIATQGPLQNTCQDFWQMVWEQGIAIIAMVTAEEEGGREKSFRYWPRLGSRHNTVTYGRFKITTRFRTDSGCYATTGLKMKHLLTGQERTVWHLQYTDWPEHGCPEDLKGFLSYLEEIQSVRRHTNSTSDPQSPNPPLLVHCSAGVGRTGVVILSEIMIACLEHNEVLDIPRVLDMLRQQRMMLVQTLCQYTFVYRVLIQFLKSSRLI
notes: human PTPN21, PTP domain, residues 873-1174; also called PTPN21 PTP domain; PTPD1; source: E. coli, modified pPRoEX HTa, purified (Ni-NTA, TEV, second Ni-NTA); not shown: His10, N-terminal, cleaved; green fluorescent protein, N-terminal, cleaved
B2: C-terminal domain (residues 54–105) of HPV18 E7, His6-MBP tag removed (domain or fragment)
chain: AEPQRHTMLCMCCKCEARIKLVVESSADDLRAFQQLFLNTLSFVCPWCASQQ
notes: HPV18 E7, C-terminal domain, residues 54-105; Homodimer by SEC-MALS; one zinc ion per monomer; also called HPV18 E7 C-terminal domain; HPV18 E7(54–105); source: E. coli BL21(DE3) RIL, modified pET28a, purified (Ni-NTA, TEV, second Ni-NTA, HiTrap Q, Superdex 75); not shown: His6, N-terminal, cleaved; MBP, N-terminal, cleaved
B3: PTP domain (residues 886–1187) of human PTPN14 (domain or fragment, UniProt Q15678 886-1187, looked up)
chain: VDATRVPMDERFRTLKKKLEEGMVFTEYEQIPKKKANGIFSTAALPENAERSRIREVVPYEENRVELIPTKENNTGYINASHIKVVVGGAEWHYIATQGPLPHTCHDFWQMVWEQGVNVIAMVTAEEEGGRTKSHRYWPKLGSKHSSATYGKFKVTTKFRTDSVCYATTGLKVKHLLSGQERTVWHLQYTDWPDHGCPEDVQGFLSYLEEIQSVRRHTNSMLEGTKNRHPPIVVHCSAGVGRTGVLILSELMIYCLEHNEKVEVPMMLRLLREQRMFMIQTIAQYKFVYQVLIQFLQNSRLI
notes: human PTPN14, catalytic PTP domain, residues 886-1187, untagged; also called PTPN14 PTP domain; nonreceptor-type protein tyrosine phosphatase 14; source: E. coli BL21(DE3) RIL, pET21a, purified (alone or copurified with E7)
B4: C-terminal domain of E7 from HPV11 (residues 45–98) (domain or fragment)
chain: AQPLTQHYQILTCCCGCDSNVRLVVECTDGDIRQLQDLLLGTLNIVCPICAPKP
notes: HPV11 E7, C-terminal domain, residues 45-98; Purified similarly to HPV18 E7, whose tag was removed with TEV; the complex mass of 80–85 kDa fits a cleaved tag; also called HPV11 E7 C-terminal domain; source: E. coli, MBP-modified pET28a, copurified with PTPN14 by mixing cell lysates
B6: C-terminal domain of E7 from HPV16 (residues 45–98) (domain or fragment)
chain: AEPDRAHYNIVTFCCKCDSTLRLCVQSTHVDIRTLEDLLMGTLGIVCPICSQKP
notes: HPV16 E7, C-terminal domain, residues 45-98; Purified similarly to HPV18 E7, whose tag was removed with TEV; the complex mass of 80–85 kDa fits a cleaved tag; also called HPV16 E7 C-terminal domain; source: E. coli, MBP-modified pET28a, copurified with PTPN14 by mixing cell lysates
B7: C-terminal domain of E7 from HPV1a (residues 39–93) (domain or fragment)
chain: LVSPQQPYAVVASCAYCEKLVRLTVLADHSAIRQLEELLLRSLNIVCPLCTLQRQ
notes: HPV1a E7, C-terminal domain, residues 39-93; Purified similarly to HPV18 E7, whose tag was removed with TEV; the complex mass of 80–85 kDa fits a cleaved tag; also called HPV1a E7 C-terminal domain; source: E. coli, MBP-modified pET28a, copurified with PTPN14 by mixing cell lysates

Columns and labels:
[1] = target: B2; test: SEC-MALS; Superdex 75 10/300 GL; 50 mM Tris-HCl pH 7.5, 200 mM NaCl, 2 mM dithiothreitol; 6 mg/mL E7 C-terminal domain, 3 mg/mL PTP domain or copurified complex; conditions: both partners purified
[2] = target: the molecule itself; test: as above
[3] = target: C-terminal domain of E7 from HPV4 (residues 44–100) (human papillomavirus 4 (HPV4)); test: as above
C-terminal domain of E7 from HPV4 (residues 44–100) (human papillomavirus 4 (HPV4)), sequence (Q07857 44-100 limits assumed): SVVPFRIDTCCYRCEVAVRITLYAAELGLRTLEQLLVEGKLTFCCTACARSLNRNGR

[4] = target: C-terminal domain of E7 from HPV38 (residues 45–100) (human papillomavirus 38 (HPV38)); test: as above
C-terminal domain of E7 from HPV38 (residues 45–100) (human papillomavirus 38 (HPV38)), sequence (Q80908 45-100 limits assumed): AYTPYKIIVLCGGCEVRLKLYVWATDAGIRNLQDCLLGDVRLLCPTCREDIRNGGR

[5] = target: B7; test: as above; conditions: both partners purified
[6] = target: B4; test: as above; conditions: both partners purified
[7] = target: B6; test: as above; conditions: both partners purified
[8] = target: B3; test: SEC; copurified from mixed E. coli lysates (Ni-NTA, TEV, second Ni-NTA); final HiLoad 26/600 Superdex 75 pg gel filtration, fractions on SDS-PAGE with Coomassie staining; conditions: both partners purified
[9] = target: B3; test: ITC; 25 °C, VP-ITC; PTP domain titrated into MBP-tagged HPV18 E7 (0.2 mM into 10 μM in Fig 1B); 20 mM Tris-HCl pH 7.5, 100 mM NaCl, 10 mM β-mercaptoethanol; one-to-one model; triplicate; conditions: both partners purified
[10] = target: B1; test: as above; conditions: both partners purified

B1
stoichiometry N [1]: 1 PTPN21 per E7 (2:2)

B2
stoichiometry N [2]: 2

B3
stoichiometry N (PTPN14 per E7 (2:2)) [3]: 1 | stoichiometry N (PTPN14 per E7 (2:2)) [4]: 1 | stoichiometry N [5]: 1 PTPN14 per E7 (2:2) | stoichiometry N [6]: 1 PTPN14 per E7 (2:2) | stoichiometry N [7]: 1 PTPN14 per E7 (2:2) | stoichiometry N [1]: 1 PTPN14 per E7 (2:2)

B4
binding result [8]: binds

B5: MBP-tagged HPV18 E7 C-terminal domain (residues 54–105) (domain or fragment)
chain: AEPQRHTMLCMCCKCEARIKLVVESSADDLRAFQQLFLNTLSFVCPWCASQQ
notes: HPV18 E7, C-terminal domain, residues 54-105; also called His6–MBP-tagged C-terminal domain of HPV18 E7; source: E. coli BL21(DE3) RIL, modified pET28a, purified; not shown: His6, N-terminal, kept; MBP, N-terminal, kept
Kd [9]: 18.2 nM | Kd [10]: 5.81 nM

B6
binding result [8]: binds

B7
binding result [8]: binds

— publication PMC6668832, “Structural basis for recognition of the tumor suppressor protein PTPN14 by the oncoprotein E7 of human papillomavirus” (PLoS Biology, 2019)
